The target of experiment [1] is T1, HLA-E/… (human, UniProt P13747 22-297; P61769 21-119, limits assumed).
T1 construct: Biotin-labeled control complex captured on neutravidin plates through a C-terminal BirA tag; also called control HLA-E/peptide complex
Briefly: ELISA, biotin-labeled complex on neutravidin plates, soluble bivalent IgG1, anti-human-HRP. As for the experimental part:
(§1) To further evaluate the binding specificity and detection sensitivity of MAB-031 and MAB-036, a second ELISA was performed. For this assay, neutravidin coated plates were used to capture biotin-labeled HLA-E/peptide complexes. Because the HLA-E/peptide complexes have a single biotin molecule conjugated to the c-terminal end BirA tag, the immobilization of these complexes results in having the molecules lined up in a homogenous directional orientation. After incubation, unbound biotin-labeled HLA-E/peptide complexes are removed by rinsing the plate in a PBS+tween-20 buffer solution. MAB31 and MAB36 were then added to wells at concentrations that ranged from 1 ug/ml to 0.0001 ug/ml. Incubation was carried out for 1 hr, wells were rinsed and bound MAB was detected using a 1:2500 dilution of a goat anti-human-HRP conjugate. The assay was developed by adding the TMB substrate solution was added to wells and developed for 10 min before adding stop solution to terminate the reaction.
On the technique in general: An ELISA detects its analyte on a solid surface through an enzyme-linked reagent.

Experiment [2] addresses T2, HLA-E/… (human, UniProt P13747 22-297; P61769 21-119, limits assumed).
T2 construct: Biotin-labeled control complex captured on neutravidin plates through a C-terminal BirA tag; also called control HLA-E/peptide complex
The description is as above. As for the experimental part: as §1
The source holds these as a separate data set.

The target in experiment [3] is T3, HLA-E/… (human, UniProt P13747 22-297; P61769 21-119, limits assumed).
T3 construct: Biotin-labeled control complex captured on neutravidin plates through a C-terminal BirA tag; also called control HLA-E/peptide complex
The experiment is described as above. The protocol:
as §1
This is another data set of the same source.

The target of experiment [4] is T4, HLA-E/… (human, UniProt P13747 22-297; P61769 21-119, limits assumed).
T4 construct: Biotin-labeled control complex captured on neutravidin plates through a C-terminal BirA tag; also called control HLA-E/peptide complex
The experiment is described as above. The protocol:
as §1
This is another data set of the same source.

Experiment [5] concerns the target T5, HLA-E/… (human, UniProt P13747 22-297; P61769 21-119, limits assumed).
T5 construct: Biotin-labeled control complex, used in both ELISA formats; also called control HLA-E/peptide complex
The description is as above. As for the experimental part:
as §1

The target in experiment [6] is T6, HLA-E/… (human, UniProt P13747 22-297; P61769 21-119, limits assumed).
T6 construct: Soluble biotin-labeled control complex; also called control HLA-E/peptide complex
Put plainly: ELISA, antibody captured on Protein-A wells, soluble biotin-labeled HLA-E/peptide complex, SA-HRP. The protocol: (§2) The isolated scFv VL and VH domains were cloned into pFUSE-hIgG1-Fc and pFUSE2-CLIg-hk plasmids, respectively and plasmid DNA was prepared using standard protocol and used to co-transfect a 200 ml culture of Expi-293 cells. Following the manufacturer's instructions, supernatants were harvested at day 5 post-transfection for antibody purification using Protein-A coated beads. Next, the purified mouse-human chimeric IgG1 antibody, MAB-031 and the fully human antibody, MAB-036 were characterized for binding specificity and sensitivity by ELISA. In brief, Protein-A coated 96-wells were used to capture either MAB-031 or MAB-036 added to wells at a concentration of 10 ug/ml. After incubation for 60 min, wells were washed using PBS (pH 7.4)+0.1% Tween-20 and soluble biotin-labeled HLA-E/peptide complexes were added to individual wells at concentrations ranging from 0.25 to 0.0625 ug/ml. Wells were washed 3× using a solution of PBS+Tween-20 and then streptavidin-Horseradish peroxidase (SA-HRP) conjugate was added to wells and incubated for 30 min. One final wash was done and the substrate solution containing 3,3′,5,5′-tetramethylbenzidine (TMB) was added to wells and developed for 10 min before adding stop solution (0.16M sulfuric acid) to terminate the reaction.

Experiment [7] addresses T7, HLA-E/… (human, UniProt P13747 22-297; P61769 21-119, limits assumed).
T7 construct: Soluble biotin-labeled control complex; also called control HLA-E/peptide complex
The experiment is described as above. The protocol:
as §2
The source holds these as a separate data set.

Here are results for two molecules from patent US20210253713A1 (ABEXXA BIOLOGICS, published 2021).

B1: MAB-031 (anti-HLA-E/…) (antibody, V domains shown)
VH: QVQLQQSGPELVKPGASVKMSCKASGYTFTDYVISWVKQRTGQGLEWIGEIYPGNNTTYYNDNFRGKATLTVDKSSSTAYMQLSSLTSEDSAVYYCARESLGIYYGSTYKGLYAMDYWGQGTTLTVSS
VL: QIVLTQSPAIMSASPGEKVTITCSASSSVSYMHWFQQKPGTSPKLWIYSTSNLASGVPARFSGSGSGTSYSLTISRMEAEDAATYYCQQRSSYPPTFGAGTKLELKR
notes: also called MAB31; MAB-31
Regarding B1, the binding result in experiment [1] is given as “no binding (tested: 1 ug/ml to 0.0001 ug/ml)”; in experiment [2], “no binding (tested: 1 ug/ml to 0.0001 ug/ml)”; in experiment [3] it was “no binding (tested: 1 ug/ml to 0.0001 ug/ml)”; in experiment [4], “no binding (tested: 1 ug/ml to 0.0001 ug/ml)”; in experiment [5], “no binding (tested: 1 ug/ml to 0.0001 ug/ml)”; in experiment [6], “no binding”. The binding result in experiment [7] is recorded as “no binding”.

B2: MAB-036 (anti-HLA-E/…) (antibody, V domains shown)
VH: EVQLVESGGGLVQPGGSLRLSCAASGFTFSSYAIHWVRQAPGKGLEWVARIAYGGGATRYADSVKGRFTISADTSKNTAYLQMNSLRAEDTAVYYCAKGLSNFDYWGQGTLVTVSS
VL: DIQMTQSPSSLSASVGDRVTITCRASQSISSYLNWYQQKPGKAPKLLIYNAAFLYSGVPSRFSGSRSGTDFTLTISSLQPEDFATYYCQQAATYPATFGQGTKVEIK
notes: Full-length human IgG1 (pFUSE vector system, human kappa); CDRs of R4Clone #1 mutated light chain were grafted onto trastuzumab VH and VL frameworks; also called MAB36
With B2, the binding result is “no binding (tested: 1 ug/ml to 0.0001 ug/ml)” in experiment [1]; “no binding (tested: 1 ug/ml to 0.0001 ug/ml)” in experiment [2]; “no binding (tested: 1 ug/ml to 0.0001 ug/ml)” in experiment [3]; “no binding (tested: 1 ug/ml to 0.0001 ug/ml)” in experiment [4]; “no binding (tested: 1 ug/ml to 0.0001 ug/ml)” in experiment [5]; “no binding” in experiment [6]. For the same molecule, the binding result in experiment [7] was “no binding”.
